B1: G11 BCMA-specific FN3 domain (designed binder)
chain: MLPAPKNLVVSRITEDSARLSWTAPDAAFDSFWIRYVERLVWGEAIHLHVPGSERSYDLTGLKPGTEYVVVISGVKGGWESTPLVAPFTT
notes: Detected with an anti-His mAb, so the protein tested carried a His tag
B2: A12 BCMA-specific FN3 domain (designed binder)
chain: MLPAPKNLVVSRITEDSARLSWTAPDAAFDSFTIKYIERATWGEAIWLNVPGSERSYDLTGLKPGTEYVVLINGVKGGPESWPLIAHFTT
notes: as for B1
B3: B03 BCMA-specific FN3 domain (designed binder)
chain: MLPAPKNLVVSRITEDSARLSWTAPDAAFDSFPIRYIETLIWGEAIWLDVPGSERSYDLTGLKPGTEYTVVIDGVKGGGRSQPLVATFTT
notes: as for B1
B4: A08 BCMA-specific FN3 domain (designed binder)
chain: MLPAPKNLVVSRITEDSARLSWTAPDAAFDSFPIRYIETLIWGEAIWLDVPGSERSYDLTGLKPGTEYAVVITGVKGGRFSSPLVASFTT
notes: as for B1
B5: C08 BCMA-specific FN3 domain (designed binder)
chain: MLPAPKNLVVSRITEDSARLSWTAPDAAFDSFPIRYIETLIWGEAIWLYVPGSERSYDLTGLKPGTEYTVVISGVKGGESSYPLIAAFTT
notes: as for B1
B6: D10 BCMA-specific FN3 domain (designed binder)
chain: MLPAPKNLVVSRITEDSARLSWTAPDAAFDSFPIRYIETLIWGEAIWLYVPGSERSYDLTGLKPGTEYTVVIDGVKGGGRSQPLVASFTT
notes: as for B1
B7: F11 BCMA-specific FN3 domain (designed binder)
chain: MLPAPKNLVVSRVTEDSARLSWTAPDAAFDSFPIRYIETLIWGEAIWLDVPGSERSYDLTGLKPGTEYVVVIDGVKGGDHSKPLVATFTT
notes: as for B1
B8: E09 BCMA-specific FN3 domain (designed binder)
chain: MLPAPKNLVVSRVTEDSARLSWTAPDAAFDSFRIRYVEVIAWGEAIWLVVPGSERSYDLTGLKPGTEYVVVIDGVKGGKTSIPLIAHFTT
notes: as for B1
B9: F01 BCMA-specific FN3 domain (designed binder)
chain: MLPAPKNLVVSRVTEDSARLSWTAPDAAFDSFIIVYRENIETGEAIVLTVPGSERSYDLTGLKPGTEYYVQIAGVKGGNISFPLSAIFTT
notes: as for B1
B10: D08 BCMA-specific FN3 domain (designed binder)
chain: MLPAPKNLVVSHVTEDSARLSWTAPDAAFDSFIIVYRENIETGEAIVLTVPGSERSYDLTDLKPGTEYYVQIAGVKGGNISFPLSAIFTT
notes: as for B1
B11: G10 BCMA-specific FN3 domain (designed binder)
chain: MLPAPKNLVVSRVTEDSARLSWIAPDAAFDSFIIVYRENIETGEAIVLTVPGSERSYDLTGLKPGTEYYVQIAGVKGGNISFPLSAIFTT
notes: as for B1
B12: E02 BCMA-specific FN3 domain (designed binder)
chain: MLPAPKNLVVSRVTEDSARLSWTAPDAAFDSFVIVYSEPDVCGEAIVLTVPGSERSYDLTGLKPGTEYWVRIAGVKGGDFSRPLSAIFTT
notes: as for B1

This assay has as its target T1, human BCMA (B cell maturation antigen) (human, UniProt Q02223 1-184).
T1 construct: whole, on cells; also called hBCMA; TNFRSF17
T1 sequence (looked up): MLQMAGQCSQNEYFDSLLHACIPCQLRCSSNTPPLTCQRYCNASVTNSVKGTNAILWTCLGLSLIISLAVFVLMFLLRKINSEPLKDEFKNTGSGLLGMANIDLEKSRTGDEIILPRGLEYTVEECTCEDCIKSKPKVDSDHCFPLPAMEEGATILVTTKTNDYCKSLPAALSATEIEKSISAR
Put plainly: flow cytometry, FN3 domain titration on HEK293F cells transiently expressing human BCMA, anti-His Alexa-488 detection, PRISM one-site specific binding fit. Set-up: Bmax: unit not given here. The protocol: 50 uL secondary antibody in FACS buffer was added to the wells. Anti-His mAb was added at a 1/100 dilution to all of the wells except for the FACS buffer only negative control wells. The plates were incubated on ice for 1 hr. Afterwards, cells were collected and combined from two wells from all four plates to check cell count and viability using Trypan blue on the Vi-Cell system. The cell count was about 67,500/well at 96.6% viability. The cell count of the control cells that were kept on ice for comparison was 1×10⁶/mL at 95.1% viability.
After 1 hr of staining, the plates were spun at 1200 rpm for 5 min at 4° C. to pellet the cells. Buffer was discarded by inverting the plates, and 100 uL FACS buffer were added to the wells. The FACS buffer wash was repeated two more times. The plates were spun at 1200 rpm for 5 min at 4° C. to pellet the cells, and buffer was discarded by inverting the plates.
Cells were resuspended in 30 uL Intellicyt buffer (FACS buffer, 0.1% Pluronic Acid, 1 mM EDTA, SytoX Red Live/Dead Stain at a 1:1000 dilution) and mixed gently by vortexing the plates. The plates were kept on ice and read on an Intellicyt plate reader. Cells were gated in the following order: (a) cells, (b) single cells, (c) viable cells. The Geometric Mean of Alexa 488 channel was calculated, and the percentage of viable single cells was calculated.
Background: Flow cytometry measures light scatter and fluorescence of single cells or particles in a stream.
For B1, the Bmax was 60700 and the Kd – broadly, the constant that tells how readily two partners part at equilibrium – came to 1.6 nM.

In turn, B2 gave a Bmax of 51400 and a Kd of 22 nM.

As for B3, the Bmax came to 60900 and the affinity, expressed as Kd, was 8.7 nM.

On to B4, for which the Bmax worked out at 101000 and binding was put at a Kd of 3000 nM.

Turning to B5, the Bmax worked out at 57900 and the Kd stood at 23 nM.

On to B6, for which the Bmax was determined as 57800 and the Kd was determined as 4.9 nM.

The molecule B7 registered a Bmax of 58200 and a Kd of 4.2 nM.

On to B8, for which the Bmax was determined as 73600 and the Kd was found to be 130 nM.

Molecule B9 came in with a Bmax of 51600 and a Kd of 520 nM.

Consider B10, for which the Bmax is 61200 and the Kd was found to be 230 nM.

B11 showed a Bmax of 72600 and a Kd of 76 nM.

B12: the Bmax was found to be 56700 and the affinity, expressed as Kd, was 6.5 nM.

The values are drawn from patent US20220031822A1 (Janssen / Centocor, published 2022).
